Experimental data as given in patent publication US20130012432A1 (Novo Nordisk, published 2013).
Positions of bridges follow the written chain, without caps; N, C: chain ends. Non-standard residues stand in square brackets, D forms with d. *: point of attachment. X3 = (2-(2-(15-carboxypentadecanoylamino)ethoxy)ethoxy)acetyl, O=C(O)CCCCCCCCCCCCCCC(=O)NCCOCCOCC(=O)*; biscarboxymethyl = Lys(biscarboxymethyl) = Nepsilon-bis(carboxymethyl)-L-lysine; Orn = NCCC[C@H](N)C(=O)O

Tests used:
MC1 receptor = biological target: T1, MC1 receptor (UniProt Q01726 1-317, limits assumed); test: 125I-NDP-α-MSH displacement, BHK-MC1 membranes (Assay IV);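 further: membrane incubations stopped by filtration, retained radioactivity counted, Ki fitted by nonlinear regression to binding curves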
T1 construct: whole, on cells; also called melanocortin receptor subtype 1; melanocortin receptor 1
T1 sequence (Q01726 whole entry): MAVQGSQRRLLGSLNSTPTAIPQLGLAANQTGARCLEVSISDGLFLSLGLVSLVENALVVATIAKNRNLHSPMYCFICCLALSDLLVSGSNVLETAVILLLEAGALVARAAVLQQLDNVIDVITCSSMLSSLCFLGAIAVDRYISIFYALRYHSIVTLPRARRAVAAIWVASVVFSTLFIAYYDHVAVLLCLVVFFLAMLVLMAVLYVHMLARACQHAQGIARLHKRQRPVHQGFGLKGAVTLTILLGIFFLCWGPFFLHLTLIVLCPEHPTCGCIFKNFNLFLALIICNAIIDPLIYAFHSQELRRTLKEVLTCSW
Protocol: The MC1 receptor binding assay was performed on BHK cell membranes stably expressing the MC1 receptor. […] Test compounds were dissolved in DMSO. […] Alternatively, HSA may be substituted with ovalbumin. The samples were incubated at 30° C. for 90 min. in Costar round-bottom microtiter plates. Incubation was terminated by filtration on a Packard harvester filtermate. […] The filters were washed with ice-cold 0.9% NaCl 8-10 times. […] The plates were counted in a Topcounter (1 min/well).
The data were analysed by non-linear regression analysis of binding curves, using the Windows™ program GraphPad™ Prism (GraphPad Software, USA).

human MC4 receptor = biological target: T2, human MC4 receptor (human, UniProt P32245 1-332); test: 125I-NDP-α-MSH displacement, BHK-human MC4 membranes (Assay V);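 further: Filter-retained radioactivity read by gamma counting, with affinity obtained through non-linear regression fitting of the binding curves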
T2 construct: whole, on cells; Assayed as membranes of BHK cells stably expressing the receptor; also called melanocortin receptor subtype 4; melanocortin receptor 4
T2 sequence (P32245 whole entry): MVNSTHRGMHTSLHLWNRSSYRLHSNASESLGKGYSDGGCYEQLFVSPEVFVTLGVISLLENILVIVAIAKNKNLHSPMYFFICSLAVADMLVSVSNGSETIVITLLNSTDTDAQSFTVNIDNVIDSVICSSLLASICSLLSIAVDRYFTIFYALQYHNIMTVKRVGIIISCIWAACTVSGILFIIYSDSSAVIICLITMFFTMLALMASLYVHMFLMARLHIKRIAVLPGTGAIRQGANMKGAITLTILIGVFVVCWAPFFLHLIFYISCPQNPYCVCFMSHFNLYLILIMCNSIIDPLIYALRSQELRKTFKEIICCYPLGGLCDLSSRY

Ac-[Orn]H[dF]RWDPPREK(biscarboxymethyl)K(X3)-NH2 (lactam 1-6)
Ki (MC1 receptor): 2140 nM | Ki (human MC4 receptor): 2.2 nM
